± gives the uncertainty stated by the source.
Assay: self-splicing fitness, log relative to wild type (ln ratio); higher = more splicing; Tetrahymena group I intron in knt gene, E. coli kanamycin selection, DiMSum; sequences stand for … in CUCUCU…GGAGGGAAAAGUUAUCAGGCAUGCACCUGGUAGCUAGUCUUUAAACCAAUAGAUUGCAUCGGUUUAAAAGGCAAGACCGUCAAAUUGCGGGAAAGGGGUCAACAGCCGUUCAGUACCAAGUCUCAGGGGAAACUUUGAGAUGGCCUUGCAAAGGGUAUGGUAAUAAGCUGACGGACAUGGUCCUAACCACGCAGCCAAGUCCUAAGUCAACAGAUCUUCUGUUGAUAUGGAUGCAGUUCACAGACUAAAUGUCGGUCGGGGAAGAUGUAUUCUUCUCAUAAGAUAUAGUCGGACCUCUCCUUAAUGGGAGCUAGCGGAUGAAGUGAUGCAACACUGGAGCCGCUGGGAACUAAUUUGUAUGCGAAAGUAUAUUGAUUAGUUUUGGAGUACUCGUGGUCG
In short: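 Six replicate transformations of E. coli BL21(DE3) with a pET-22b(+) library were grown overnight at 37°C or 30°C. The library randomised all eight P1ex-region intron nucleotides, the intron lying in the knt kanamycin-resistance gene, and plates were LB agar with or without 25 μg/mL kanamycin plus 100 μg/mL carbenicillin, 50 μM IPTG and 0.2% rhamnose. Pooled colonies were amplicon-sequenced on an Illumina HiSeq 2500, and fitness is the DiMSum error-weighted combination of wild-type-normalised replicate fold changes, kanamycin versus none.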

Sequence	self-splicing fitness (ln) (30 °C)	self-splicing fitness (ln) (37 °C)
AUCUAGCAAUAUUACGAUGU	-0.781 ± 0.08	-0.0281 ± 0.11
AUCUAGCAAUAUUACGAUUA	-0.971 ± 0.11	-0.836 ± 0.11
AUCUAGCAAUAUUACGCACC	-0.201 ± 0.21	-0.886 ± 0.38
AUCUAGCAAUAUUACGCCGA	-0.962 ± 0.17	-0.198 ± 0.19
AUCUAGCAAUAUUACGCGCA	-0.448 ± 0.1	-0.485 ± 0.11
AUCUAGCAAUAUUACGCGUG	-1.23 ± 0.1	-1.01 ± 0.12
AUCUAGCAAUAUUACGCUAU	-3.15 ± 0.21	-1.49 ± 0.14
AUCUAGCAAUAUUACGGAUG	-2.12 ± 0.12	0.0806 ± 0.12
AUCUAGCAAUAUUACGGGCU	-2.22 ± 0.16	-2.49 ± 0.23
AUCUAGCAAUAUUACGGUAG	-3.92 ± 0.28	-2.13 ± 0.22
AUCUAGCAAUAUUACGGUGC	-3.09 ± 0.22	-1.4 ± 0.21
AUCUAGCAAUAUUACGUAUG	-2.41 ± 0.13	-1.55 ± 0.17
AUCUAGCAAUAUUACGUCAG	-3.18 ± 0.2	-2.34 ± 0.2
AUCUAGCAAUAUUACGUCUC	-2.8 ± 0.26	-0.391 ± 0.22
AUCUAGCAAUAUUACGUGGC	-2.58 ± 0.23	-2.92 ± 0.31
AUCUAGCAAUAUUACGUGUC	-3.9 ± 0.36	-2.64 ± 0.24
AUCUAGCAAUAUUACGUUCC	-1.16 ± 0.18	-1.47 ± 0.25
AUGAAGCAAUAUUACGAAAU	-0.819 ± 0.07	-0.46 ± 0.073
AUGAAGCAAUAUUACGAAGC	-3.46 ± 0.18	-1.89 ± 0.19
AUGAAGCAAUAUUACGAAUU	-1.58 ± 0.084	-1.25 ± 0.12
AUGAAGCAAUAUUACGACGA	0.221 ± 0.18	0.67 ± 0.15
AUGAAGCAAUAUUACGACGU	0.206 ± 0.076	0.735 ± 0.088
AUGAAGCAAUAUUACGAUAU	-0.294 ± 0.066	0.229 ± 0.083
AUGAAGCAAUAUUACGAUUG	-2.6 ± 0.13	-1.24 ± 0.14

Sequence	self-splicing fitness (ln) (30 °C)	self-splicing fitness (ln) (37 °C)
AUGAAGCAAUAUUACGCACC	-0.272 ± 0.097	0.751 ± 0.18
AUGAAGCAAUAUUACGCCAA	-0.427 ± 0.086	0.0636 ± 0.11
AUGAAGCAAUAUUACGCCGG	-0.936 ± 0.11	0.108 ± 0.18
AUGAAGCAAUAUUACGCCUG	-0.59 ± 0.092	-0.209 ± 0.11
AUGAAGCAAUAUUACGCCUU	-1.9 ± 0.16	-1.01 ± 0.14
AUGAAGCAAUAUUACGCUUG	-0.527 ± 0.09	0.363 ± 0.11
AUGAAGCAAUAUUACGGACU	0.892 ± 0.12	0.27 ± 0.1
AUGAAGCAAUAUUACGGAGU	-1.4 ± 0.089	-0.447 ± 0.094
AUGAAGCAAUAUUACGGCAA	0.00287 ± 0.12	0.0978 ± 0.14
AUGAAGCAAUAUUACGGCAC	-0.455 ± 0.086	0.222 ± 0.14
AUGAAGCAAUAUUACGGCCA	0.439 ± 0.11	0.466 ± 0.18
AUGAAGCAAUAUUACGGGAC	-2.09 ± 0.32	-1.65 ± 0.43
AUGAAGCAAUAUUACGGGCA	0.212 ± 0.079	0.459 ± 0.09
AUGAAGCAAUAUUACGGGUC	-3.75 ± 0.18	-2.63 ± 0.23
AUGAAGCAAUAUUACGGGUG	-1.81 ± 0.088	-0.453 ± 0.098
AUGAAGCAAUAUUACGGGUU	-1.62 ± 0.11	-1.07 ± 0.12
AUGAAGCAAUAUUACGUACG	-0.461 ± 0.13	-0.446 ± 0.093
AUGAAGCAAUAUUACGUCAC	-2.97 ± 0.26	-1.09 ± 0.18
AUGAAGCAAUAUUACGUCCG	-0.499 ± 0.062	0.309 ± 0.086
AUGAAGCAAUAUUACGUCGA	-0.936 ± 0.1	0.22 ± 0.097
AUGAAGCAAUAUUACGUGUA	-1.75 ± 0.082	-0.686 ± 0.093
AUGAAGCAAUAUUACGUUAG	-1.97 ± 0.08	-0.415 ± 0.11
AUGAAGCAAUAUUACGUUCU	-0.34 ± 0.076	0.201 ± 0.092
AUGCAGCAAUAUUACGAAAG	-2.87 ± 0.23	-3.15 ± 0.4

Sequence	self-splicing fitness (ln) (30 °C)	self-splicing fitness (ln) (37 °C)
AUGCAGCAAUAUUACGAACG	-1.7 ± 0.16	-0.0769 ± 0.12
AUGCAGCAAUAUUACGAUUC	-2.72 ± 0.14	-0.939 ± 0.17
AUGCAGCAAUAUUACGCCUC	-2.55 ± 0.2	-1.35 ± 0.14
AUGCAGCAAUAUUACGCGUC	-3.6 ± 0.2	-3.05 ± 0.16
AUGCAGCAAUAUUACGCGUU	-2.4 ± 0.088	-2.7 ± 0.19
AUGCAGCAAUAUUACGCUGC	-4.54 ± 0.2	-3.94 ± 0.19
AUGCAGCAAUAUUACGCUGU	-3.46 ± 0.21	-2.63 ± 0.45
AUGCAGCAAUAUUACGGGUG	-3.33 ± 0.14	-1.62 ± 0.12
AUGCAGCAAUAUUACGGUAC	-2.35 ± 0.095	-1.52 ± 0.14
AUGCAGCAAUAUUACGGUAG	-3.81 ± 0.16	-2.4 ± 0.14
AUGCAGCAAUAUUACGGUCC	-1.85 ± 0.16	-0.88 ± 0.17
AUGCAGCAAUAUUACGUAGU	-1.46 ± 0.088	-0.542 ± 0.089
AUGCAGCAAUAUUACGUGAA	-2.44 ± 0.12	-0.683 ± 0.13
AUGCAGCAAUAUUACGUGCC	-1.08 ± 0.11	-0.869 ± 0.15
AUGCAGCAAUAUUACGUGCG	-0.943 ± 0.061	-0.294 ± 0.076
AUGCAGCAAUAUUACGUUAC	-3.57 ± 0.3	-1.54 ± 0.22
AUGCAGCAAUAUUACGUUAG	-3.05 ± 0.15	-2.38 ± 0.2
AUGGAGCAAUAUUACGAUAG	-3.59 ± 0.4	-1.67 ± 0.32
AUGGAGCAAUAUUACGCAAG	-4.55 ± 0.42	-1.09 ± 0.31
AUGGAGCAAUAUUACGCAUU	-3.12 ± 0.22	-1.84 ± 0.22
AUGGAGCAAUAUUACGCCUA	-0.868 ± 0.14	-0.981 ± 0.18
AUGGAGCAAUAUUACGCGCG	-2.41 ± 0.17	-1.27 ± 0.19
AUGGAGCAAUAUUACGCGUU	-3.93 ± 0.21	-3.05 ± 0.24
AUGGAGCAAUAUUACGGAUG	–	-2.29 ± 0.37

Sequence	self-splicing fitness (ln) (30 °C)	self-splicing fitness (ln) (37 °C)
AUGGAGCAAUAUUACGGGAC	-5.23 ± 0.41	-2.7 ± 0.25
AUGGAGCAAUAUUACGGGGG	-3.55 ± 0.43	-2.21 ± 0.35
AUGGAGCAAUAUUACGUAAC	-2.91 ± 0.34	-2.29 ± 0.46
AUGGAGCAAUAUUACGUAGC	–	-1.93 ± 0.3
AUGGAGCAAUAUUACGUAUA	-1.75 ± 0.45	-2.02 ± 0.36
AUGGAGCAAUAUUACGUCCA	-0.783 ± 0.45	-0.778 ± 0.34
AUGGAGCAAUAUUACGUCCU	-0.886 ± 0.24	-1.35 ± 0.29
AUGGAGCAAUAUUACGUGCG	-3.44 ± 0.32	-1.8 ± 0.23
AUGGAGCAAUAUUACGUUCA	-1.16 ± 0.12	-0.311 ± 0.14
AUGGAGCAAUAUUACGUUGG	-4.65 ± 0.39	-2.35 ± 0.23
AUGUAGCAAUAUUACGAACC	-1 ± 0.18	-0.513 ± 0.22
AUGUAGCAAUAUUACGAAGA	–	-0.739 ± 0.21
AUGUAGCAAUAUUACGAAUC	–	-2.91 ± 0.29
AUGUAGCAAUAUUACGACUC	0.285 ± 0.12	0.585 ± 0.18
AUGUAGCAAUAUUACGCAGU	-2.49 ± 0.12	-1.29 ± 0.11
AUGUAGCAAUAUUACGCAUU	-3.93 ± 0.18	-2.89 ± 0.23
AUGUAGCAAUAUUACGCCAA	-0.877 ± 0.19	-1.5 ± 0.19
AUGUAGCAAUAUUACGCCCA	-0.905 ± 0.12	-0.148 ± 0.2
AUGUAGCAAUAUUACGCCCU	0.267 ± 0.097	0.0833 ± 0.098
AUGUAGCAAUAUUACGCUCG	-0.227 ± 0.078	0.00954 ± 0.13
AUGUAGCAAUAUUACGGAUG	-3.13 ± 0.31	-2.82 ± 0.41
AUGUAGCAAUAUUACGGCCG	-2.32 ± 0.31	-0.303 ± 0.33
AUGUAGCAAUAUUACGGCUC	0.231 ± 0.27	–
AUGUAGCAAUAUUACGGGAA	-2.34 ± 0.38	-3.07 ± 0.47

From the supplement of paper PMC7877785
